Measured values as given in patent publication EP0701605B2, “IMPROVED ENZYMES AND DETERGENTS CONTAINING THEM” (BASF SE, priority 1994, dated 1995).

Substrate: C[C@H](NC(=O)CCC(=O)O)C(=O)N[C@@H](C)C(=O)N1CCC[C@H]1C(=O)N[C@@H](Cc1ccccc1)C(=O)Nc1ccc([N+](=O)[O-])cc1
Experiment: AAPF-pNA assay, kinetic parameters
Assay type: biochemical, Bacillus lentus DSM 5483
Details: 100 mM Tris pH 8.6, 25°C
Protocol: Two different protease assays were used. With the HPE method protease activity was established at a single concentration of casein as substrate. In the AAPF-pNA assay initial rates of succinyl-L-alanyl-L-alanyl-L-prolyi-L-phenylalanyl-p-nitroanilide (AAPF-pNA; Bachem Bioscience, Philadelphia, PA) supported catalysis were used to determine the kinetic parameters Km, kcat, and kcat/Km.
Protease samples were diluted with 50% (v/v) 1,2-propanediol in 100 mM Tris, adjusted with 2 N HCl to pH 8.6 at 25°C ('Tris-propanediol buffer'), in which they were stable for at least 6 h at room temperature. A stock solution of 160 mM AAPF-pNA was prepared in dimethylsulfoxide dried over molecular sieve beads (Aldrich; 4 A, 4-8 mesh) for at least 24 h prior to use. Fixed point assays were performed at 25°C with 1.6 mM AAPF-pNA in 100 mM Tris, adjusted with 2 N HCl to pH 8.6 at 25°C, in a total volume of 1.020 ml. The substrate was added to the assay buffer 1 minute prior to the assay initiation and the reaction was started by addition of enzyme at a final concentration of 20 ng to 1.3 µg of protein per ml (0.75 to 48.5 nM enzyme) depending on specific activity. Release of p-nitroanilide was monitored at 410 nm, and a molar extinction coefficient of 8,480 M^-1cm^-1 was used to calculate amount and concentration of product formed (DelMar, E.G., Largman, C., Brodrick, J.W., and Geokas, M.C. (1979) Anal Biochem. 99, 316-320).
Kinetic parameters were calculated from a velocity vs. substrate concentration plot constructed from initial rates measured once each at 12 different AAPF-pNA concentrations ranging from 0.16 to 3.2 mM. Data were fitted to a hyperbolic curve and proportionally weighted using the program ENZFITTER (Leatherbarrow, R.J. (1987) ENZFITTER. Biosoft, Cambridge, UK). A nominal molecular weight of 26.8 kDa was used in all calculations that required the interconversion of protein concentration and molarity of protease enzyme (Table 4).

[1] = other: F54, AAPF-pNA 0.16 to 3.2 mM
[2] = other: F44, AAPF-pNA 0.16 to 3.2 mM
[3] = other: M131, AAPF-pNA 0.16 to 3.2 mM
[4] = other: F46, AAPF-pNA 0.16 to 3.2 mM
[5] = other: F45, AAPF-pNA 0.16 to 3.2 mM
[6] = other: F11, AAPF-pNA 0.16 to 3.2 mM
[7] = other: F49, AAPF-pNA 0.16 to 3.2 mM
[8] = other: F55, AAPF-pNA 0.16 to 3.2 mM
[9] = other: F47, AAPF-pNA 0.16 to 3.2 mM
[10] = other: F43, AAPF-pNA 0.16 to 3.2 mM

B1: Bacillus lentus DSM 5483 alkaline protease (BLAP) variant F54, S3T + V41 + R99G + A188P + V193M + V199I + L211D, SEQ ID NO:17 (Lederbergia lenta; … (protein)
chain: AQTIPWGISRVQAPAAHNRGLTGSGVKVAVLDTGISTHPDLNIRGGASFVPGEPSTQDGNGHGTHVAGTIAALNNSIGVLGVAPSAELYAVKVLGADGGGAISSIAQGLEWAGNNGMHVANLSLGSPSPSATLEQAVNSATSRGVLVVAASGNSGASSISYPARYANAMAVGATDQNNNRASFSQYGPGLDIMAPGVNIQSTYPGSTYASDNGTSMATPHVAGAAALVKQKNPSWSNVQIRNHLKNTATSLGSTNLYGSGLVNAEAATR
notes: made in house; host or cells: Bacillus subtilis DB104
[1]
  Km: 5500 µM
  kcat: 7 s⁻¹
  kcat/Km: 1300 M⁻¹ s⁻¹

B2: Bacillus lentus DSM 5483 alkaline protease (BLAP) variant F44, S3T + V41 + R99A + A188P + V193M + V1991, SEQ ID NO:12 (Lederbergia lenta; … (protein)
chain: AQTIPWGISRVQAPAAHNRGLTGSGVKVAVLDTGISTHPDLNIRGGASFVPGEPSTQDGNGHGTHVAGTIAALNNSIGVLGVAPSAELYAVKVLGADGAGAISSIAQGLEWAGNNGMHVANLSLGSPSPSATLEQAVNSATSRGVLVVAASGNSGASSISYPARYANAMAVGATDQNNNRASFSQYGPGLDIMAPGVNIQSTYPGSTYASLNGTSMATPHVAGAAALVKQKNPSWSNVQIRNHLKNTATSLGSTNLYGSGLVNAEAATR
notes: as for B1
[2]
  Km: 2490 µM
  kcat: 257 s⁻¹
  kcat/Km: 103000 M⁻¹ s⁻¹

B3: Bacillus lentus DSM 5483 alkaline protease (BLAP) variant M131, S3T + V41 + A188P + V193M + V1991, SEQ ID NO: 24 (Lederbergia lenta; A188P/S3T/V193M/V199I/V4I) (protein)
chain: AQTIPWGISRVQAPAAHNRGLTGSGVKVAVLDTGISTHPDLNIRGGASFVPGEPSTQDGNGHGTHVAGTIAALNNSIGVLGVAPSAELYAVKVLGADGRGAISSIAQGLEWAGNNGMHVANLSLGSPSPSATLEQAVNSATSRGVLVVAASGNSGASSISYPARYANAMAVGATDQNNNRASFSQYGPGLDIMAPGVNIQSTYPGSTYASLNGTSMATPHVAGAAALVKQKNPSWSNVQIRNHLKNTATSLGSTNLYGSGLVNAEAATR
notes: site-specific mutagenesis of DNA encoding the mature form of wild type BLAP; made in house; host or cells: Bacillus subtilis DB104
[3]
  Km: 980 µM
  kcat: 153 s⁻¹
  kcat/Km: 156000 M⁻¹ s⁻¹

B4: Bacillus lentus DSM 5483 alkaline protease (BLAP) variant F46, S3T + V41 + S154E + A188P + V193M + V1991, SEQ ID NO:14 (Lederbergia lenta; … (protein)
chain: AQTIPWGISRVQAPAAHNRGLTGSGVKVAVLDTGISTHPDLNIRGGASFVPGEPSTQDGNGHGTHVAGTIAALNNSIGVLGVAPSAELYAVKVLGADGRGAISSIAQGLEWAGNNGMHVANLSLGSPSPSATLEQAVNSATSRGVLVVAASGNEGASSISYPARYANAMAVGATDQNNNRASFSQYGPGLDIMAPGVNIQSTYPGSTYASLNGTSMATPHVAGAAALVKQKNPSWSNVQIRNHLKNTATSLGSTNLYGSGLVNAEAATR
notes: as for B1
[4]
  Km: 2000 µM
  kcat: 358 s⁻¹
  kcat/Km: 179000 M⁻¹ s⁻¹

B5: Bacillus lentus DSM 5483 alkaline protease (BLAP) variant F45, S3T + V41 + R99S + A188P + V193M + V1991, SEQ ID NO:13 (Lederbergia lenta; … (protein)
chain: AQTIPWGISRVQAPAAHNRGLTGSGVKVAVLDTGISTHPDLNIRGGASFVPGEPSTQDGNGHGTHVAGTIAALNNSIGVLGVAPSAELYAVKVLGADGSGAISSIAQGLEWAGNNGMHVANLSLGSPSPSATLEQAVNSATSRGVLVVAASGNSGASSISYPARYANAMAVGATDQNNNRASFSQYGPGLDIMAPGVNIQSTYPGSTYASLNGTSMATPHVAGAAALVKQKNPSWSNVQIRNHLKNTATSLGSTNLYGSGLVNAEAATR
notes: as for B1
[5]
  Km: 3050 µM
  kcat: 208 s⁻¹
  kcat/Km: 68000 M⁻¹ s⁻¹

B6: Bacillus lentus DSM 5483 alkaline protease (BLAP) variant F11, S3T + R99S + A188P + V193M + V1991, SEQ ID NO:10 (Lederbergia lenta; A188P/R99S/S3T/V193M/V199I) (protein)
chain: AQTVPWGISRVQAPAAHNRGLTGSGVKVAVLDTGISTHPDLNIRGGASFVPGEPSTQDGNGHGTHVAGTIAALNNSIGVLGVAPSAELYAVKVLGADGSGAISSIAQGLEWAGNNGMHVANLSLGSPSPSATLEQAVNSATSRGVLVVAASGNSGASSISYPARYANAMAVGATDQNNNRASFSQYGPGLDIMAPGVNIQSTYPGSTYASLNGTSMATPHVAGAAALVKQKNPSWSNVQIRNHLKNTATSLGSTNLYGSGLVNAEAATR
notes: as for B1
[6]
  Km: 1880 µM
  kcat: 174 s⁻¹
  kcat/Km: 92000 M⁻¹ s⁻¹

B7: Bacillus lentus DSM 5483 alkaline protease (BLAP) variant F49, S3T + V4I + A188P + V193M + V1991 + L211D, SEQ ID NO:16 (Lederbergia lenta; … (protein)
chain: AQTIPWGISRVQAPAAHNRGLTGSGVKVAVLDTGISTHPDLNIRGGASFVPGEPSTQDGNGHGTHVAGTIAALNNSIGVLGVAPSAELYAVKVLGADGRGAISSIAQGLEWAGNNGMHVANLSLGSPSPSATLEQAVNSATSRGVLVVAASGNSGASSISYPARYANAMAVGATDQNNNRASFSQYGPGLDIMAPGVNIQSTYPGSTYASDNGTSMATPHVAGAAALVKQKNPSWSNVQIRNHLKNTATSLGSTNLYGSGLVNAEAATR
notes: as for B1
[7]
  Km: 3500 µM
  kcat: 38 s⁻¹
  kcat/Km: 11000 M⁻¹ s⁻¹

B8: Bacillus lentus DSM 5483 alkaline protease (BLAP) variant F55, S3T + V41 + S154E + A188P + V193M + V1991 + L211D, SEQ ID NO:18 (Lederbergia lenta; … (protein)
chain: AQTIPWGISRVQAPAAHNRGLTGSGVKVAVLDTGISTHPDLNIRGGASFVPGEPSTQDGNGHGTHVAGTIAALNNSIGVLGVAPSAELYAVKVLGADGRGAISSIAQGLEWAGNNGMHVANLSLGSPSPSATLEQAVNSATSRGVLVVAASGNEGASSISYPARYANAMAVGATDQNNNRASFSQYGPGLDIMAPGVNIQSTYPGSTYASDNGTSMATPHVAGAAALVKQKNPSWSNVQIRNHLKNTATSLGSTNLYGSGLVNAEAATR
notes: as for B1
[8]
  Km: 4300 µM
  kcat: 11 s⁻¹
  kcat/Km: 2600 M⁻¹ s⁻¹

B9: Bacillus lentus DSM 5483 alkaline protease (BLAP) variant F47, S3T + V41 + S154D + A188P + V193M + V1991, SEQ ID NO:15 (Lederbergia lenta; … (protein)
chain: AQTIPWGISRVQAPAAHNRGLTGSGVKVAVLDTGISTHPDLNIRGGASFVPGEPSTQDGNGHGTHVAGTIAALNNSIGVLGVAPSAELYAVKVLGADGRGAISSIAQGLEWAGNNGMHVANLSLGSPSPSATLEQAVNSATSRGVLVVAASGNDGASSISYPARYANAMAVGATDQNNNRASFSQYGPGLDIMAPGVNIQSTYPGSTYASLNGTSMATPHVAGAAALVKQKNPSWSNVQIRNHLKNTATSLGSTNLYGSGLVNAEAATR
notes: as for B1
[9]
  Km: 2000 µM
  kcat: 249 s⁻¹
  kcat/Km: 124000 M⁻¹ s⁻¹

B10: Bacillus lentus DSM 5483 alkaline protease (BLAP) variant F43, S3T + V41 + R99G + A188P + V193M + V1991, SEQ ID NO:11 (Lederbergia lenta; … (protein)
chain: AQTIPWGISRVQAPAAHNRGLTGSGVKVAVLDTGISTHPDLNIRGGASFVPGEPSTQDGNGHGTHVAGTIAALNNSIGVLGVAPSAELYAVKVLGADGGGAISSIAQGLEWAGNNGMHVANLSLGSPSPSATLEQAVNSATSRGVLVVAASGNSGASSISYPARYANAMAVGATDQNNNRASFSQYGPGLDIMAPGVNIQSTYPGSTYASLNGTSMATPHVAGAAALVKQKNPSWSNVQIRNHLKNTATSLGSTNLYGSGLVNAEAATR
notes: as for B1
[10]
  Km: 1730 µM
  kcat: 171 s⁻¹
  kcat/Km: 99000 M⁻¹ s⁻¹
